The target of one assay is mIL21 (Mus musculus, UniProt Q9ES17). Briefly: ELISA: mouse IL-21 coated on the plate, biotinylated 2P2 alone or spiked with Peptide 3, Streptavidin-HRP, TMB, A450. A general note: ELISA stands for enzyme-linked immunosorbent assay.
For assay [1], the target named is T1, Peptide 5 of hIL-21 (P5, 15aa) (human).
T1 peptide: PPSTNAGRRQKHRLT
Briefly: ELISA, biotinylated antibody on coated peptide. As to the method: (§1) To detect epitopes of 2P2 and 3A3, peptides consisting of different regions of hIL-21 were synthesized commercially and coated on an ELISA plate, followed by blocking of non-specific binding sites with 3% BSA in PBS. Biotinylated 2P2 or 3A3 were then added to the wells and developed with Streptavidin-HRP and TMB substrates.
(§2) An ELISA assay was used to examine binding between antibodies 2P2 and 3A3 and a Streptavidin-HRP secondary only control to each of the peptides P1 to P5, hIL-21 and OVA peptide. […] Thus, the epitope recognized by antibody 2P2 comprised a minimal sequence of 9 mer to 15 mer, with the core sequence being […] (SEQ ID NO 23). Binding was stronger with the sequence CPSCD was also present and strongest binding was observed when the sequences IKKLK, CPSCD and […] were present.

The target of assay [2] is T2, Peptide 4 of hIL-21 (P4, 23aa) (human).
T2 peptide: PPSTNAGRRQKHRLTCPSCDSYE
The assay can be described thus: ELISA, biotinylated antibody on coated peptide. As to the method: as §1, §2

In assay [3] the target is T3, human IL-21 (human, UniProt Q9HBE4 25-162, limits assumed).
T3 construct: also called hIL-21; full length hIL-21
The assay can be described thus: SPR (Bio-Rad XPR36), average of the five wells of Table 6; mean of the five single KDs, SD 0.74x10^-9. As for the experimental part:
(§3) Surface Plasma Resonance binding kinetics assay were performed on a Bio-rad XPR36 system by the direct amine coupling method. Briefly, a flow of mixture of EDC [N-ethyl-N′-(3-[…]-propyl)carbodiimide] and NHS (N-hydroxysuccinimide) was used to activate the cell surface of a GLC sensor chip before 25 μg/ml anti-IL-21 mAb was flowed through, then a shot flow of ethanolamine was used to block the remaining active sites on the cell surface. Afterwards, serial diluted solutions of IL-21 from 0 to 40 nM were flown over the cell surface to bind to the immobilized anti-IL-21 mAb molecules. Binding kinetics were performed at 25° C. with a flow rate of 30 μL/min, association time of 3 min and dissociation time of 6 min. The buffer consisted of Hepes, NaCl, tween20, and 1 mg/mL BSA at pH 7.4. The flow cell regeneration buffer between cycles was 15 mM phosphoric acid. Double references were used to process the sensorgrams. The binding curves were globally fit to the 1:1 Langmuir binding model.

Assay [4] deals with T3, human IL-21. Briefly: cell-based or functional assay.
For assay [5], the target named is T4, Peptide 3 of hIL-21 (P3, 30aa) (human).
T4 peptide: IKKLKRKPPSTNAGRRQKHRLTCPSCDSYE
The assay can be described thus: ELISA: Peptide 3 coated on the plate, biotinylated 2P2 alone or spiked with Peptide 3, Streptavidin-HRP, TMB, A450.

The target of the next assay is T5, P2.
T5 construct: also called Peptide 2 (P2, 27aa); peptide 2 of hIL-21
T5 peptide: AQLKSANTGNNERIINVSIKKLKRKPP
The assay can be described thus: peptide ELISA: peptide coated on the plate, biotinylated antibody, Streptavidin-HRP, TMB, A450.

For the next assay, the target named is T6, P1.
T6 construct: also called Peptide 1 (P1, 30aa); peptide 1 of hIL-21
The assay is described as above.

The target in assay [6] is T3, human IL-21. Briefly: SPR (Bio-Rad XPR36), stated average of n=5 measurements; stated final affinity, average of n=5 (table 6). As to the method: as §3

T3 sequence (Q9HBE4 25-162 limits assumed): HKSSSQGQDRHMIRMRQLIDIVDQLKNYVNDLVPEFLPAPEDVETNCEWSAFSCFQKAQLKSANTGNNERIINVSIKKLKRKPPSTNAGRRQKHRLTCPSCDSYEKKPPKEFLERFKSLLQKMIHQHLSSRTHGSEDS
T6 sequence (peptide, as listed by the source): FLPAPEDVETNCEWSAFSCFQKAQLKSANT

B1: monoclonal antibody 2P2 (antibody, V domains shown)
VH: EVQLQQSGADLVRSGASVKLSCTASGFNIKDYYIHWVKQRPEQGLELIGWIDPESGDTEYAPKFQVKATMTADTSSNTAYLQLSSLTSEDTAVYYCNDGSGYWGQGTTLTVSS
VL: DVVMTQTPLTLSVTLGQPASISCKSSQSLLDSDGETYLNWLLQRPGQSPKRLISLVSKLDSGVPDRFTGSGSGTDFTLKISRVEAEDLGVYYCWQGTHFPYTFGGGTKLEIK
notes: It was biotinylated in the ELISA assays and unlabelled, amine-coupled to the chip, in SPR; also called mAb 2P2; mAB 2P2
As for B1, the binding result with mIL21 is listed as “no binding”; in assay [1], “binds”; in assay [2], “binds”; in assay [5], “binds”; in the assay with P2 it was “no binding”; with P1, “no binding”. Moreover, the figures for the equilibrium dissociation constant (Kd) with human IL-21 [3] and with human IL-21 [6] were 3.33 nM and 3 nM, respectively. In addition, the “bioactivity of human IL-21 on Ba/F3-hIL-21R cell proliferation at 10 µg/ml 2P2” value with human IL-21 [4] is greater than 10 fold. The “hIL-21 bioactivity on human CD8 T cell activation (granzyme B and perforin)” value with human IL-21 [4] is greater than 10 fold. Also, in the assay with human IL-21 [4], the “hIL-21 mediated human B cell proliferation (CFSE dilution); 5 ng/ml hIL-21 plus 1 µg/ml 2P2 compared with 100 ng/ml hIL-21” value was roughly 20 fold.

By Kd is commonly meant the concentration at which binding is half-saturated.
